Drawing on patent US20230220589A1, this text covers P1 score, encoding yield and P2 score for five molecules.

Experiment [1] deals with M44-modified A NTAA target peptides (M44-A-P2-peptide). The experiment is described as follows: Gini coefficient of P1 selectivity from multiplex encoding heatmap.
Experiment [2] concerns the target M44-modified T NTAA target peptides. The experiment is described as follows: encoding assay; P2 D.
In experiment [3] the target is M44-modified E NTAA target peptides. The experiment is described as follows: encoding assay; P2 D.
Experiment [4] concerns the target M44-modified S NTAA target peptides. Nature of the experiment: encoding assay; P2 D.
Experiment [5] has as its target M44-modified V NTAA target peptides. The experiment is described as follows: encoding assay; P2 D.
In experiment [6] the target is M44-modified H NTAA target peptides. The experiment is described as follows: encoding assay; P2 D.
The target in experiment [7] is M44-modified D NTAA target peptides. Nature of the experiment: encoding assay; P2 D.
The target of experiment [8] is M44-modified P NTAA target peptides. The experiment is described as follows: encoding assay; P2 D.
Experiment [9] deals with M44-modified G NTAA target peptides (M44-G-P2-peptide). Nature of the experiment: encoding assay; P2 G.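 Note: fraction of recording tags encoded.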
In experiment [10] the target is M44-modified E NTAA target peptides. The experiment is described as follows: encoding assay; P2 W.
In experiment [11] the target is M44-modified L NTAA target peptides (M44-L-P2-peptide). The experiment is described as follows: Gini coefficient of P2 tolerance from multiplex encoding heatmap.
Experiment [12] deals with M17-modified S NTAA target peptides. Nature of the experiment: encoding assay; P2 I.
Experiment [13] deals with M17-modified I NTAA target peptides. The experiment is described as follows: encoding assay; P2 I.
Experiment [14] deals with M17-modified P NTAA target peptides. The experiment is described as follows: encoding assay; P2 I.
Experiment [15] deals with M17-modified Q NTAA target peptides. Nature of the experiment: encoding assay; P2 I.
The target of experiment [16] is M17-modified T NTAA target peptides. Nature of the experiment: encoding assay; P2 I.
The target of experiment [17] is M17-modified M NTAA target peptides. Nature of the experiment: encoding assay; P2 D.
In experiment [18] the target is M17-modified E NTAA target peptides. The experiment is described as follows: encoding assay; P2 D.
Experiment [19] concerns the target M17-modified N NTAA target peptides. Nature of the experiment: encoding assay; P2 D.
For experiment [20], the target named is M17-modified S NTAA target peptides. Nature of the experiment: encoding assay; P2 D.
In experiment [21] the target is M17-modified I NTAA target peptides. The experiment is described as follows: encoding assay; P2 D.
The target of experiment [22] is M17-modified W NTAA target peptides. The experiment is described as follows: encoding assay; P2 D.
Experiment [23] addresses M17-modified F NTAA target peptides. Nature of the experiment: encoding assay; P2 D.
Experiment [24] addresses M17-modified G NTAA target peptides. Nature of the experiment: encoding assay; P2 D.
Experiment [25] addresses M17-modified P NTAA target peptides. Nature of the experiment: encoding assay; P2 D.
Experiment [26] addresses M17-modified D NTAA target peptides. The experiment is described as follows: encoding assay; P2 D.
Experiment [27] deals with M17-modified A NTAA target peptides. The experiment is described as follows: encoding assay; P2 D.
The target in experiment [28] is M17-modified Y NTAA target peptides (M17-Y-P2-peptide). Nature of the experiment: encoding assay; P2 D.
The target of experiment [29] is M17-modified Q NTAA target peptides. Nature of the experiment: encoding assay; P2 D.
Experiment [30] addresses M17-modified H NTAA target peptides. The experiment is described as follows: encoding assay; P2 D.
The target of experiment [31] is M17-modified L NTAA target peptides. The experiment is described as follows: encoding assay; P2 D.
In experiment [32] the target is M17-modified T NTAA target peptides. Nature of the experiment: encoding assay; P2 D.
In experiment [33] the target is M17-modified V NTAA target peptides. The experiment is described as follows: encoding assay; P2 D.
In experiment [34] the target is M17-modified Y NTAA target peptides (M17-Y-P2-peptide). Nature of the experiment: Gini coefficient of P2 tolerance from multiplex encoding heatmap.
The target in experiment [35] is M17-modified M NTAA target peptides. Nature of the experiment: encoding assay; P2 W.
Experiment [36] concerns the target M17-modified E NTAA target peptides. Nature of the experiment: encoding assay; P2 W.
Experiment [37] deals with M17-modified N NTAA target peptides. Nature of the experiment: encoding assay; P2 W.
For experiment [38], the target named is M17-modified S NTAA target peptides. The experiment is described as follows: encoding assay; P2 W.
The target in experiment [39] is M17-modified I NTAA target peptides. Nature of the experiment: encoding assay; P2 W.
Experiment [40] concerns the target M17-modified W NTAA target peptides. Nature of the experiment: encoding assay; P2 W.
In experiment [41] the target is M17-modified F NTAA target peptides. The experiment is described as follows: encoding assay; P2 W.
Experiment [42] addresses M17-modified G NTAA target peptides. The experiment is described as follows: encoding assay; P2 W.
The target of experiment [43] is M17-modified P NTAA target peptides. Nature of the experiment: encoding assay; P2 W.
Experiment [44] concerns the target M17-modified D NTAA target peptides. The experiment is described as follows: encoding assay; P2 W.
The target of experiment [45] is M17-modified A NTAA target peptides. Nature of the experiment: encoding assay; P2 W.
Experiment [46] has as its target M17-modified Y NTAA target peptides (M17-Y-P2-peptide). The experiment is described as follows: encoding assay; P2 W.
Experiment [47] deals with M17-modified Q NTAA target peptides. Nature of the experiment: encoding assay; P2 W.
Experiment [48] addresses M17-modified H NTAA target peptides. The experiment is described as follows: encoding assay; P2 W.
Experiment [49] addresses M17-modified L NTAA target peptides. Nature of the experiment: encoding assay; P2 W.
Experiment [50] has as its target M17-modified T NTAA target peptides. Nature of the experiment: encoding assay; P2 W.
Experiment [51] has as its target M17-modified V NTAA target peptides. The experiment is described as follows: encoding assay; P2 W.
Experiment [52] addresses M17-modified W NTAA target peptides. Nature of the experiment: encoding assay; P2 S.
For experiment [53], the target named is M17-modified S NTAA target peptides. Nature of the experiment: encoding assay; P2 A.
Experiment [54] addresses M17-modified W NTAA target peptides. Nature of the experiment: encoding assay; P2 G.

B1: engineered M44-A binder (SEQ ID NO: 42) (designed binder, not shown: small tags and cut ends; large carriers)
chain: QVSVQPNFQQDKFLGRWFVAGLASNSSWDREKVAALSGAKMVVAPATDGGLNVTRTMLRKNQCETYTGLLQPAGSLGSYSWRSPHPGSTGSESVVETDYDQYALVYGQGSKGPGEDLRAAALWSRTQTPRAELKEKFTAFSKAQGFTEDTIVFLPQTDKCMTEQ
In experiment [1], B1 yielded a P1 score of 0.31. The encoding yield in experiment [2] was 0.01; in experiment [3], 0.01; in experiment [4] it was 0.01; in [5], 0.03; in experiment [6] it was 0.01; in [7], 0.02. The figures for the encoding yield in [8], in experiment [9] and in [10] were 0.01, 0.01 and 0.02, respectively.

B2: engineered M44-L binder (SEQ ID NO: 21) (designed binder, not shown: small tags and cut ends; large carriers)
chain: QVSVQPNFQQDKFLGRWFYAGHASNSSWYREKVAALSMAKLVVAPATDGGLNATETFLRKNQCETITSLLQPAGSLGSYSSRSPHGGSTWSTSVVETDYDQYALLYLQGSKGPGEDFRGAILASRTQTPRAELKEKFTAFSKAQGFTEDTIVFLPQTDKCMTEQ
In [11], B2 gave a P2 score of 0.408.

B3: engineered M17-Y binder (SEQ ID NO: 61) (designed binder, not shown: small tags and cut ends; large carriers)
chain: TVPDRSEIAGKWYVVALASNTEFYLREKDWVKSAMARISFLGEDELKVSSAVPSPNGCYKVERTWKKTSDDGEVYNSRAAKLKVEVLDTDYKSYAVIYATRVKDGRTDHQMILYSRSPEVSPAATAIFRKLAGERNYTDEMVAMLPRQEECTVDEV
For the molecule B3, the encoding yield was 0.01 in [12]; 0.05 in experiment [13]; 0.01 in experiment [14]; 0.02 in experiment [15]; 0.01 in experiment [16]; 0.02 in experiment [17]. Also, the encoding yield turned out to be 0.02 in experiment [18]; 0.02 in experiment [19]; 0.01 in experiment [20]; 0.01 in [21]; 0.02 in [22]; 0.04 in [23]. Also, the encoding yield in experiment [24] turned out to be 0.03; in [25] it was 0.01; in experiment [26] it was 0.01; in experiment [27] it was 0.02; in [28], 0.05; in [29], 0.01. Moreover, the encoding yield in [30] turned out to be 0.01; in experiment [31] it was 0.02; in [32] it was 0.01; in experiment [33], 0.02; in experiment [35], 0.02; in experiment [36], 0.01. In addition, the encoding yield in experiment [37] turned out to be 0.02; in experiment [38], 0.02; in experiment [39], 0.11; in experiment [40], 0.04; in experiment [41], 0.14; in experiment [42], 0.01. Besides, the encoding yield amounted to 0.03 in experiment [43]; 0.02 in [44]; 0.02 in experiment [45]; 0.12 in experiment [46]; 0.02 in [47]; 0.02 in [48]. For the same molecule, the encoding yield in experiment [49] came out at 0.03; in experiment [50], 0.01; in experiment [51], 0.05. In [34], this molecule displayed a P2 score of 0.225.

B4: upgraded binder after additional maturation round (SEQ ID NO: 62) (designed binder, not shown: small tags and cut ends; large carriers)
chain: TVPDRSEIAGKWYVVALASNTEFYLRGKDRVKSAMVRISFQGEDELKVSSAVPSPNGCYKVERTWKKTSDDGEVYNSRAAKLKVEVLDTDYKSYAVIYATRVKDRRTDHQMILYSRSPDVSPAATAIFRKLAGERNYTDEMVAMLPRQEECTVDEV
Take B4: the encoding yield came out at 0.03 in experiment [52]; 0.02 in experiment [12]; 0.08 in [13]; 0.01 in [14]; 0.03 in [15]; 0.02 in [16]. For the same molecule, the encoding yield in experiment [53] was found to be 0.01; in experiment [17], 0.03; in [18], 0.02; in experiment [19], 0.03; in experiment [20] it was 0.01; in experiment [21], 0.02. Besides, the encoding yield came out at 0.03 in [22]; 0.05 in [23]; 0.03 in experiment [24]; 0.02 in experiment [25]; 0.02 in experiment [26]; 0.03 in experiment [27]. The encoding yield in experiment [28] came to 0.1; in experiment [29] it was 0.02; in experiment [30], 0.02; in experiment [31], 0.03; in experiment [32] it was 0.01; in [33] it was 0.02. Further, the encoding yield in [54] amounted to 0.04; in experiment [35] it was 0.04; in experiment [36], 0.01; in experiment [37], 0.04; in [38], 0.06; in experiment [39] it was 0.14. In addition, the encoding yield in experiment [40] was found to be 0.1; in [41], 0.18; in experiment [42] it was 0.02; in [43] it was 0.03; in experiment [44], 0.04; in experiment [45], 0.04. The encoding yield is 0.19 in experiment [46]; 0.03 in experiment [47]; 0.04 in experiment [48]; 0.03 in experiment [49]; 0.03 in experiment [50]; 0.07 in [51]. The molecule further displayed a P2 score in experiment [34] of 0.128.

B5: engineered M44-L binder (SEQ ID NO: 31) (designed binder, not shown: small tags and cut ends; large carriers)
chain: QDSTQNLIPAPPLISVPLQPGFWTERFQGRWFLVGFAGNAVQKERQSRLTMQSLILELQEDNSYNITAINVRGQGCRYIISTLVPSSRPGQFTLGNIHSYPQIQSLDVQVADTDYDQFAMVFLQGTSENKQYFEVALAGRTKGLSDELKERFVSFAKSLGLKDNNIVFSVPTDQCIDN
As to B5, the encoding yield was 0.01 in experiment [2]; 0.01 in experiment [3]; 0.01 in experiment [4]; 0.03 in experiment [5]; 0.01 in experiment [6]; 0.01 in experiment [7]. Also, the encoding yield in [8] and in experiment [10] was 0.01 in each case. In experiment [11], this molecule yielded a P2 score of 0.331.
